The chains are these.
B1: CTX-1202 (peptide)
peptide: {CH2CO}-[dA]H[dF]RWC-NH2
modifications: thioether N-6
SMILES: C[C@H]1NC(=O)CSC[C@@H](C(N)=O)NC(=O)[C@H](Cc2c[nH]c3ccccc23)NC(=O)[C@H](CCCNC(=N)N)NC(=O)[C@@H](Cc2ccccc2)NC(=O)[C@H](Cc2c[nH]cn2)NC1=O
B2: CTX-1605 (peptide)
peptide: Ac-RC[Aib][3Pal][dF]RFC-NH2
modifications: disulfide 2-8
SMILES: CC(=O)N[C@@H](CCCNC(=N)N)C(=O)N[C@H]1CSSC[C@@H](C(N)=O)NC(=O)[C@H](Cc2ccccc2)NC(=O)[C@H](CCCNC(=N)N)NC(=O)[C@@H](Cc2ccccc2)NC(=O)[C@H](Cc2cccnc2)NC(=O)C(C)(C)NC1=O
B3: CTX-1206 (peptide)
peptide: Ac-CGH[dF]RWC-NH2
modifications: disulfide 1-7
SMILES: CC(=O)N[C@H]1CSSC[C@@H](C(N)=O)NC(=O)[C@H](Cc2c[nH]c3ccccc23)NC(=O)[C@H](CCCNC(=N)N)NC(=O)[C@@H](Cc2ccccc2)NC(=O)[C@H](Cc2c[nH]cn2)NC(=O)CNC1=O
B4: CTX-1604 (peptide)
peptide: Ac-RC[Aib][2Pal][dF]RFC-NH2
modifications: disulfide 2-8
SMILES: CC(=O)N[C@@H](CCCNC(=N)N)C(=O)N[C@H]1CSSC[C@@H](C(N)=O)NC(=O)[C@H](Cc2ccccc2)NC(=O)[C@H](CCCNC(=N)N)NC(=O)[C@@H](Cc2ccccc2)NC(=O)[C@H](Cc2ccccn2)NC(=O)C(C)(C)NC1=O
B5: CTX-1602 (peptide)
peptide: Ac-RC[Aib][Orn][dF]RFC-NH2
modifications: disulfide 2-8
SMILES: CC(=O)N[C@@H](CCCNC(=N)N)C(=O)N[C@H]1CSSC[C@@H](C(N)=O)NC(=O)[C@H](Cc2ccccc2)NC(=O)[C@H](CCCNC(=N)N)NC(=O)[C@@H](Cc2ccccc2)NC(=O)[C@H](CCCN)NC(=O)C(C)(C)NC1=O
B6: CTX-1257 (peptide)
peptide: Ac-RC[dA]R[dF]R[dF]C-NH2
modifications: disulfide 2-8
SMILES: CC(=O)N[C@@H](CCCNC(=N)N)C(=O)N[C@H]1CSSC[C@@H](C(N)=O)NC(=O)[C@@H](Cc2ccccc2)NC(=O)[C@H](CCCNC(=N)N)NC(=O)[C@@H](Cc2ccccc2)NC(=O)[C@H](CCCNC(=N)N)NC(=O)[C@@H](C)NC1=O

Starred links: 1 amine or outer side, 2 acyl side, 3 side chain; linkers in the order of their positions; H or OH if unused. Positions of bridges follow the written chain, without caps; N, C: chain ends. Non-standard residues stand in square brackets, D forms with d. Primed or numbered codes have the meaning given here. dTyr(4-OMe)″ = O-methyl-D-tyrosine, COc1ccc(C[C@@H](N[*:1])C(=O)[*:2])cc1; 2Pal = N[C@@H](Cc1ccccn1)C(=O)O; 3Pal = N[C@@H](Cc1cccnc1)C(=O)O; Cit = NC(=O)NCCC[C@H](N)C(=O)O; Orn = NCCC[C@H](N)C(=O)O; Aib = CC(C)(N)C(=O)O

For one experiment, the target named is T1, human MC4R receptor (human, UniProt P32245 1-332). Description: cell-based or functional assay.
T1 sequence (P32245 whole entry): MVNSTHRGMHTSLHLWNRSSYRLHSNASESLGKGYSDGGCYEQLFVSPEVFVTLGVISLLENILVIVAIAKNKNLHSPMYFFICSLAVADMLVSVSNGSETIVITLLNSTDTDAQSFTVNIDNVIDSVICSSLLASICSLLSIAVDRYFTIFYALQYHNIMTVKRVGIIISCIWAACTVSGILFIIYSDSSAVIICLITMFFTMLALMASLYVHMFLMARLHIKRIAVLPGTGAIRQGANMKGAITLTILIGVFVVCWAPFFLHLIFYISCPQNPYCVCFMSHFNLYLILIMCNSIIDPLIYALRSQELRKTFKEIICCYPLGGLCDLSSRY
In the case of Ac-RC[Aib][Cit][dF]R[dW]C-NH2 (disulfide 2-8) [CTX-1290], the “% max activation” value was determined as 88% and the “cAMP EC50” value amounted to 112 nM.
Ac-RC[Aib]R[dF]RFC-NH2 (disulfide 2-8) [CTX-1601]: the “% max activation” value was 97% and the “cAMP EC50” value was 11 nM.
The corresponding values for Ac-RCG[Cit][dF]RWC-NH2 (disulfide 2-8) [CTX-1294] are 102% and 3.5 nM.
For Ac-RC[Aib]R[dF]RWC-NH2 (disulfide 2-8) [CTX-1292] the same measures were 90% and 0.16 nM.
For Ac-RC[Aib]R[dTyr(4-OMe)″]R[dW]C-NH2 (disulfide 2-8) [CTX-1297], the “% max activation” value was 97% and the “cAMP EC50” value was determined as 3.3 nM.
The corresponding values for Ac-RCA[Cit][dF]R[dW]C-NH2 (disulfide 2-8) [CTX-1288] are 87% and 77 nM.
As for {CH2CO}-[dA][Cit][dF]RFC-NH2 (thioether N-6) [CTX-1658], the “cAMP EC50” value is above 10000 nM.
For B1, the “% max activation” value is 104% and the “cAMP EC50” value is 0.65 nM.
As for Ac-RC[Aib][Cit][dF]RWC-NH2 (disulfide 2-8) [CTX-1289], the “% max activation” value stood at 93% and the “cAMP EC50” value stood at 0.6 nM.
The corresponding values for B2 are 85% and 33 nM.
For Ac-RC[Aib][Cit][dTyr(4-OMe)″]RFC-NH2 (disulfide 2-8) [CTX-1299] the same measures were 78% and 65 nM.
As for B3, the “% max activation” value stood at 101%.
Consider Ac-RC[Aib]R[dTyr(4-OMe)″]RFC-NH2 (disulfide 2-8) [CTX-1298], for which the “% max activation” value was 93% and the “cAMP EC50” value was 3.3 nM.
For B4 the same measures were 96% and 1520 nM.
The corresponding values for B5 are 97% and 73 nM.

In the next experiment the target is human MC3R (human, UniProt P41968 1-323). Briefly: cell-based or functional assay.
Chain of human MC3R (P41968 whole entry): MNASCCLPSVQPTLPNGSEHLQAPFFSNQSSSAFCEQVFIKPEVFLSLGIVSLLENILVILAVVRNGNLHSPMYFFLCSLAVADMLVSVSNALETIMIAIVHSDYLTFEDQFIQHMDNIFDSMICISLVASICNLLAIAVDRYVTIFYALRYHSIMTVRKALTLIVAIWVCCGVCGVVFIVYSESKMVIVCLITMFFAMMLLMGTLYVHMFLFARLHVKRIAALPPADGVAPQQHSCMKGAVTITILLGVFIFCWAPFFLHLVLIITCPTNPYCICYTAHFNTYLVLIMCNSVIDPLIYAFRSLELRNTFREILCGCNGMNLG
Regarding Ac-RC[Aib][Cit][dF]R[dW]C-NH2 (disulfide 2-8) [CTX-1290], the “% max activation” value is 20% and the “cAMP EC50” value is 1040 nM.
The corresponding values for Ac-RC[Aib]R[dF]RFC-NH2 (disulfide 2-8) [CTX-1601] are 73% and 26 nM.
The corresponding values for Ac-RCG[Cit][dF]RWC-NH2 (disulfide 2-8) [CTX-1294] are 33% and 40 nM.
On to Ac-RC[Aib]R[dF]RWC-NH2 (disulfide 2-8) [CTX-1292], for which the “% max activation” value was determined as 76% and the “cAMP EC50” value came to 3.3 nM.
On to Ac-RC[Aib]R[dTyr(4-OMe)″]R[dW]C-NH2 (disulfide 2-8) [CTX-1297], for which the “cAMP EC50” value is above 10000 nM.
Ac-RCA[Cit][dF]R[dW]C-NH2 (disulfide 2-8) [CTX-1288]: the “% max activation” value worked out at 36% and the “cAMP EC50” value amounted to 1250 nM.
Regarding {CH2CO}-[dA][Cit][dF]RFC-NH2 (thioether N-6) [CTX-1658], the “cAMP EC50” value was above 10000 nM.
Regarding B1, the “% max activation” value turned out to be 101% and the “cAMP EC50” value came out at 130 nM.
For the molecule B6, the “cAMP EC50” value was found to be 44 nM.
Ac-RC[Aib][Cit][dF]RWC-NH2 (disulfide 2-8) [CTX-1289]: the “% max activation” value was determined as 21% and the “cAMP EC50” value worked out at 17 nM.
In the case of B2, the “cAMP EC50” value is above 10000 nM.
For Ac-RC[Aib][Cit][dTyr(4-OMe)″]RFC-NH2 (disulfide 2-8) [CTX-1299], the “cAMP EC50” value is above 10000 nM.
Take B3: the “% max activation” value turned out to be 94% and the “cAMP EC50” value stood at 12 nM.
Turning to Ac-RC[Aib]R[dTyr(4-OMe)″]RFC-NH2 (disulfide 2-8) [CTX-1298], the “cAMP EC50” value was above 10000 nM.
B4: the “% max activation” value was found to be 12% and the “cAMP EC50” value is 167 nM.
For B5 the same measures were 80% and 251 nM.

The next experiment concerns the target T1, human MC4R receptor. Briefly: cell-based or functional assay. The source holds these as a separate data set.
Turning to Ac-RC[Aib][Cit][dF]R[dW]C-NH2 (disulfide 2-8) [CTX-1290], the “MC4R selectivity vs MC1R” value worked out at 10 and the “MC4R selectivity vs MC3R” value came to 9.23.
The corresponding values for Ac-RC[Aib]R[dF]RFC-NH2 (disulfide 2-8) [CTX-1601] are 0.93 and 2.3.
The corresponding values for Ac-RCG[Cit][dF]RWC-NH2 (disulfide 2-8) [CTX-1294] are 111 and 11.
For Ac-RC[Aib]R[dF]RWC-NH2 (disulfide 2-8) [CTX-1292] the same measures were 2.46 and 21.
In the case of Ac-RC[Aib]R[dTyr(4-OMe)″]R[dW]C-NH2 (disulfide 2-8) [CTX-1297], the “MC4R selectivity vs MC1R” value amounted to 0.52 and the “MC4R selectivity vs MC3R” value was above 3000.
The corresponding values for Ac-RCA[Cit][dF]R[dW]C-NH2 (disulfide 2-8) [CTX-1288] are 3.75 and 16.
B1: the “MC4R selectivity vs MC1R” value stood at 0.89.
The same measure, in the same setting: with B6 the figure was 0.02.
For the molecule Ac-RC[Aib][Cit][dF]RWC-NH2 (disulfide 2-8) [CTX-1289], the “MC4R selectivity vs MC1R” value turned out to be 130 and the “MC4R selectivity vs MC3R” value worked out at 30.
The corresponding values for B2 are 0.14 and above 300.
The corresponding values for Ac-RC[Aib][Cit][dTyr(4-OMe)″]RFC-NH2 (disulfide 2-8) [CTX-1299] are 3.66 and above 154.
Turning to B3, the “MC4R selectivity vs MC3R” value came out at 23.
Take Ac-RC[Aib]R[dTyr(4-OMe)″]RFC-NH2 (disulfide 2-8) [CTX-1298]: the “MC4R selectivity vs MC1R” value came out at 0.12 and the “MC4R selectivity vs MC3R” value amounted to 0.93.
For B4 the same measures were 3.66 and 0.11.
For B5 the same measures were 3.65 and 3.44.
